Laboratory results from the DeepSol protein solubility set.

Assay: soluble on expression in E. coli; label from the status in PepcDB or PDB records

Row | Sequence | soluble on expression in E. coli
1 | MAHHHHHHMAHAVGFACPHMADPSMVRNVIGVRGRALSVVVDSTNAAMAARKHYDCDDIYGMELQDQNGDGSTLESHWSQRHAKDELMAPIGGAGDHTELTLAAFAELGCMRVNWKLAEPMGWGKKSGCELLQSKRSAPNMSEYSHIFCNRDEVVERCASDRYSRGFCRRSIIEFSKQHSMDSCPIIDPAMDVRDLEAVFEKEEYLSARPGDKPSSWCLDTLPTNTTDARYPEETYLSAATQAELKCLGMQVHLKNPEKRNVRWLPCTEEETITWDTPPYNKENVICPKYAEVCTISATGGSVIPVVSWDGEARVWSRTVPPASTGQGLPGASVPVAESIDPGRGTHTKDVVTAIPERNLLLQGPWRLSVLLLLLE | soluble
2 | MDYLVKALAYDGKVRAYAARTTDMVNEGQRRHGTWPTASAALGRTMTASLMLGAMLKGDDKLTVKIEGGGPIGAIVADANAKGEVRAYVSNPQVHFDLNEQGKLDVRRAVGTNGTLSVVKDLGLREFFTGQVEIVSGELGDDFTYYLVSSEQVPSSVGVGVLVNPDNTILAAGGFIIQLMPGTDDETITKIEQRLSQVEPISKLIQKGLTPEEILEEVLGEKPEILETMPVRFHCPCSKERFETAILGLGKKEIQDMIEEDGQAEAVCHFCNEKYLFTKEELEGLRDQTTR | soluble
3 | MASTGVERRKPLENKVALVTASTDGIGLAIARRLAQDGAHVVVSSRKQENVDRTVATLQGEGLSVTGTVCHVGKAEDRERLVAMAVNLHGGVDILVSNAAVNPFFGNIIDATEEVWDKILHVNVKATVLMTKAVVPEMEKRGGGSVLIVSSVGAYHPFPNLGPYNVSKTALLGLTKNLAVELAPRNIRVNCLAPGLIKTNFSQVLWMDKARKEYMKESLRIRRLGNPEDCAGIVSFLCSEDASYITGETVVVGGGTASRL | soluble
4 | MSLQADFNRPVLAVDTGTSRLSLALRADGETRLFHQEVGSRQSELILPEIRTLFRDAGITAADLGAVVYAQGPGAFTGLRIGIGVAQGLATPFDTPLIGVPSLDAAASLPPPQSCILAATDARMGEVFYAWFDTLNCHRLSDYQVGRAADIRLPEGCAFSDGIGSAFALEEAPPFSGRPDMPTAADFLALAAKGGYPAVHAAHAGLLYVRNKIALTAKEQAERRAEGHHHHHH | soluble
5 | MVAADIGAGLADALTAPLDHKDKGLQSLTLDQSVRKNEKLKLAAQGAEKTYGNGDSLNTGKLKNDKVSRFDFIRQIEVDGQLITLESGEFQVYKQSHSALTAFQTEQIQDSEHSGKMVAKRQFRIGDIAGEHTSFDKLPEGGRATYRGTAFGSDDAGGKLTYTIDFAAKQGNGKIEHLKSPELNVDLAAADIKPDGKRHAVISGSVLYNQAEKGSYSLGIFGGKAQEVAGSAEVKTVNGIRHIGLAAKQHHHHHH | soluble
6 | MMLAMIKDPFARLGLDREVLTVSQLNGRARVLLEDVFSSIWVEGEISNLSRPASGHVYFTLKDSGAQVRCALFRQSAARVRQALKDGLQVKVRGKVSLFEGRGDYQLILDTVEPAGDGALRLAFDALKAKLSDEGLFSADRKVALPLHPQRIGIISSPTGAVIRDIISVFRRRAPRVELTLIPTAVQGREAINQIVRALKLADARGFDALILARGGGSLEDLWCFNEEAVARAIDACVTPIVSAVGHETDVSISDFVADVRAPTPSAAAELLAPDSSDLHRRVDNLHRRLVSRMQDRLMRERLRLEGISRRLRHPGERLRQQSQRLDDLDMRLRRAFEQSMHKKQVRLAHMESRLTAQHPGRTLAFLRQRLDALAERLPRAIREQIKVRKLQLQSQMQTLNVVSPLATLGRGYSILLDERGHAIRNAAQTQPGQRLTARLGEGELQVRVEDNHLTPVTLSLLD | not soluble
7 | MHESARHIVDLYQRHARAWDQRRRANPEAFEGEQAWLERFRRVMGQGGQVLDLGCGGGEPIARNLIEHQCAVTGVDSSATLLDHCRQRFAGQQWIHADMRSLALDQDFAGILAWNSLFHLSPDDQRAMFTVFERHAGPGCALMFTSGPEAGEAIGEFEGEALYHASLSPGEYCTLLDTHGFEVVQHISEDPDCCGFTVWLARAIDWGLEHHHHHH | not soluble
8 | MSLIKVLIVEDDPMVAMLNAHYLEQVGGFELVQAVNSVKSAIEVLEESRIDLVLLDIFMPEETGFELLMYIRNQEKEIDIMMISAVHDMGSIKKALQYGVVDYLIKPFTFERFKEALTIYREKLTFMKEQQKISQSELDSLILQKEKREPTVTKELPKGLTKQTLQLIWQKIELLNGRAFTTDEMSQLVGISRVSIRKYVMFLTDIGVLENEMMYQHVGRPVSKLRCVDQKKIEFYVEGHHHHHH | soluble
9 | MFVAREHELQVLEKLFTSDSFEMVVLYGRRRVGKTALIDEFVKDKRVLYFTAIQQSAKMNLEDFSRAALSFFGMPDSTPSFGGWSDALSFVAERAAQTDERMVFVFDEFPYAAAAEPALPSMLQIAIDHGFLATKVTMILSGSNEGFMENDVLGRKSPLYGRRTAQIRLLPFDYADAAKFLTNTSPQELVQYYATFGGTPYYLARIQEADGFESNVLRLMFDNLGVLREEPMMLLRQELREPASYYSILQSIAGGNSSPKLIAEHAGVGSDSIGAYLKTLVDLRLIERKVPFGEDPSKSRKGMYVVSDPFFAYWFRFVGRNMSILDGNISEEVTSRLAFGPAFDTYVGQQFETICLQWLIRNNAMGNLPFVATQFGKWWGNDPIAHEQTDIDVIAADSLDKTILFGECKWRNSFNETEAIEKLHQRAGLVRGYQAGNAWLMLFTKNPVSESTRTRYMDDERMVFVSAEELYTALEHHHHHH | not soluble
10 | MGHHHHHHSHKPGLSTSIPLRMSSYTFKRPVTRITPHPGNEVRYHQWEESLEKPQQVCWQRRLQGLQAYSSAGELSSTLDLANTLQKLVPSYTGGSLLEDLASGLEHSCPMPHLACSSDAVEIIPAEGVGISQLLCKQFLVTEEDIRKQEGKVKTVRERLAIALIADGLANEAEKVRDQEGCPEKR | not soluble
11 | MVKLENKPTIISTGTIVGPKEGEGPLKDYFDMIMTDDLYGEKTWELAESKMVETASQQAIQKAGKKLSDVNYMLGGDLINQIVPASFAARELAIPFLGIYGACSTMAEGLCIGSMLIDGGFADLVLSGTSSHYCTAERQFRFPLELGNQKPMTAQWTVTGAGSVLLAPNGDGPKVKYVTVGKVIDEGIDDGNNMGPAMAPAAIDTIYSYFEDTNDDPNSFDIIATGDLGTLGKQIAEDFLKEKGVDISKVYTDCGIEMFNLKEQDVHCGGSGCGCSATVFAGYIYDKLRKKEFNKVMLVSTGALLSPTSTLQKQTIPCVAHAVVIVNELEHHHHHH | not soluble
12 | MKRVLSGIQPSGEIHIGNYLGAIKQWVAIGEKWGRDAFFCIVDYHALTNPLAYDPSTLAQRTFEAALVNIAAGLDPEKVTLFVQSHVPEHTELSWVFTTLTPLGDLTRMTQFKDKASKQETVWSGLLMYPVLQAADILIYKADTVPVGEDQVQHIELTREIARRFNHLFGETFPEPQALLNPEAPRVPGIDGKAKMSKSLGNTIGLLEPEESIWQKIQHLPDDPQRIRLSDPGDPERTILFTYLSYFAPKDLVEALKEEYRKAGVGTYVVKRILFDHLMEALRPIRERAEALKKDPDYVMDALLEGAKRARAVAQATMEEVREKVGLLLPRKRPVLR | soluble
13 | MMCTAKKCGIRFQPPAIILIYESEIKGKIRQRIMPVRNFSKFSDCTRAAEQLKNNPRHKSYLEQVSLRQLEKLFSFLRGYLSGQSLAETMEQIQRETTIDPEEDLNKLDDKELAKRKSIMDELFEKNQKKKDDPNFVYDIEVEFPQDDQLQSCGWDTESADEF | soluble
14 | MGSDKIHHHHHHMPQDRPTAAQLWSGEISFFSLDTDLIQSAGYSFDAGVLNQLPQVFPKTMQLLLTEVTAREIVSHLMKSVTQAMGEFRKGSDTLKRSVGIDMDQIDKLFEALSVVSSAEAVFRERVDSYAERCRGEVLPIGGGDMMPRIFERYFAGLPPFGARKDKKAEFPDAMSLLLLEDYARDHGTRGVVASRDEGWSEFAGKSEYLYCVKSLDALIALFEATGEHAKTLADRIASAVEDENSFVRAALLDGFRTHIHESSWNVENVYSGVVPRVEAATCEADVISHVLQSDRTKVWNLEEDKSVWVVELTASLTVEVQIDVTFYVWDAIDREEMELDTQTVRRKTNIEVKAFLTVGGAETEVDPAKWDVGVEIAPGQYEIDVGEVEPEYSGD | not soluble
